From patent US20230414780A1 (VECT HORUS, published 2023) come the findings set out here.

Residue numbers refer to the chain shown, from its start.

The target in assay [1] is T1, human transferrin receptor (hTfR) fused to EGFP, on CHO cells (human, UniProt P02786 1-760).
T1 construct: whole, on cells; also called human TfR; CHO-hTfR-EGFP; not shown: EGFP from pEGFP-C1 vector, fused to the N-terminal (intracellular) end of hTfR
The assay can be described thus: apparent Kd, cell-based assay.

Assay [2] deals with T2, mouse transferrin receptor (mTfR) fused to EGFP, on CHO cells (mouse, UniProt Q62351 1-763).
T2 construct: whole, on cells; also called mouse TfR; CHO-mTfR-EGFP; not shown: EGFP
T2 sequence (Q62351 whole entry, the tested form may be a part): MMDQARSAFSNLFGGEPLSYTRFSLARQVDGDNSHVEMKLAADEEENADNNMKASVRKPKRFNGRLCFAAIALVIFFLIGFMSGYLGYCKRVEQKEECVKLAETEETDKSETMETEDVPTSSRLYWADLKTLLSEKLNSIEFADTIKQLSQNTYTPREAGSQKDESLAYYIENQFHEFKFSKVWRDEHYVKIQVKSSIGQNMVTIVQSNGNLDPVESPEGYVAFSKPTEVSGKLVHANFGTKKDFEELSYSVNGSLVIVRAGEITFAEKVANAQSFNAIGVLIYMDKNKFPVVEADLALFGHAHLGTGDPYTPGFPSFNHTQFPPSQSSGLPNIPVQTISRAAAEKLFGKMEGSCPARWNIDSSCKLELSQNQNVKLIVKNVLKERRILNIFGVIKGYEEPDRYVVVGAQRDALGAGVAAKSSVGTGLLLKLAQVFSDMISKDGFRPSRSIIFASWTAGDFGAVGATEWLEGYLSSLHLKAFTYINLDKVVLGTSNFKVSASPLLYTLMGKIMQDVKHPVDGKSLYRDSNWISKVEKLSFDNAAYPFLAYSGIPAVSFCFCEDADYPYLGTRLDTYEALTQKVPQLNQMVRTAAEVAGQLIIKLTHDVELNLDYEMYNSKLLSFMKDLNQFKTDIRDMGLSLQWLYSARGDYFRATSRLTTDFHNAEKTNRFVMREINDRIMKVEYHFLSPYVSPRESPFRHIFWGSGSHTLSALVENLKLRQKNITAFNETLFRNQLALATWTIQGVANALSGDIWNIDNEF
Kind of assay: cell-based flow cytometry assay on mTfR-expressing cells (as in Example XI).

Assay [3] concerns the target T2, mouse transferrin receptor (mTfR) fused …. The assay can be described thus: cell-based flow cytometry assay on mTfR-expressing cells (as in Example XI); Kd/app. A general note: Flow cytometry measures light scatter and fluorescence of single cells or particles in a stream.
Assay [4] addresses T1, human transferrin receptor (hTfR) fused …. The assay can be described thus: flow cytometry on CHO-hTfR-EGFP cells, 1 hr at 4 C, anti-6His + Alexa647 anti-mouse; ratio to background fluorescence. The procedure:
FIGS. 15A-15H: In vitro gene silencing activity of VHH-siGFPst1 bioconjugates. […] CHO-hTfR-EGFP cells were incubated 1 hr at 4° C. with various concentrations of the indicated compounds. Detection of VHHs was performed using a primary mouse anti-6His (1/1000) and an Alexa647-conjugated anti-mouse secondary antibody (1/400). Measurements of cell-surface signal associated to VHH were performed using flow cytometry. The results are expressed as the ratio of Alexa647-associated fluorescence intensity of test compounds to that of background fluorescence. […] The total fluorescence associated to the EGFP protein was then quantified using flow cytometry and rationalized to that of untreated (control) cells (set at 100%) *** p≤0.001. […] The total fluorescence associated with the EGFP protein was then quantified using flow cytometry and rationalized to that of untreated (control) cells (set at 100%). […] CHO-hTfR-EGFP cells were incubated with the indicated compounds at 1 μM during 120 hrs at 37° C. Data were processed and analyzed as described in (B). *** p≤0.001 vs. untreated cells. […] The total fluorescence associated with the EGFP protein was then quantified using flow cytometry and rationalized to that of untreated (control) cells (set at 100%).

Assay [5] has as its target T3, murine TfR expressed by murine neuroblastoma Neuro-2a cells (mouse, UniProt Q62351 1-763).
T3 construct: whole, on cells; also called mTfR (N2a cells)
Kind of assay: competition with C5-Alexa680 (100 nM) on living Neuro-2a cells, 3 hrs at 37 C, flow cytometry; Ki/app, mean ± SD. The procedure:
(§1) The binding of VHH-Oligo and VHH-hFc-Oligo conjugates to mTfR was evaluated using a competition assay on living cells expressing the receptor of interest, namely murine neuroblastoma Neuro-2a cells (N2a). N2a cells were grown in Dulbecco's Modified Eagle Medium (DMEM) GlutaMAX supplemented with 10% v/v FBS in 5% CO₂ at 37° C. Cells were seeded two days before experiments in 96-well plates at a density of 50.000 cells/well. […] Resuspended cells were transferred in a 96-deepwell plate (V-bottom) containing 1% fetal bovine serum (FBS)/0.02% sodium azide in phosphate-buffered saline (PBS) and then centrifuged for 5 min at 2000 rpm at 4° C. After removing the supernatant, 5 mM EDTA in D-PBS and 4% paraformaldehyde (PFA) (v/v 1:1) were added into wells to fix cells for 15 min at room temperature. PFA was removed by centrifugation (5 min, 3000 rpm, 4° C.) and cells were resuspended with 5 mM EDTA in D-PBS. Then the cellular A680-associated fluorescence signal was quantified using an Attune™ NxT flow cytometer (Thermo Fisher Scientific) equipped with Attune™ NxT v3.1.2. Experimental data (experimental triplicates) were fitted with GraphPad Prism® software using a nonlinear fit to determine the apparent Ki inhibition constants.

In assay [6] the target is T4, mouse TfR ectodomain fused to a mouse IgG1 Fc fragment (mouse, UniProt Q62351 89-763).
T4 construct: extracellular domain; not shown: mouse IgG1 Fc fragment
T4 sequence (Q62351 89-763): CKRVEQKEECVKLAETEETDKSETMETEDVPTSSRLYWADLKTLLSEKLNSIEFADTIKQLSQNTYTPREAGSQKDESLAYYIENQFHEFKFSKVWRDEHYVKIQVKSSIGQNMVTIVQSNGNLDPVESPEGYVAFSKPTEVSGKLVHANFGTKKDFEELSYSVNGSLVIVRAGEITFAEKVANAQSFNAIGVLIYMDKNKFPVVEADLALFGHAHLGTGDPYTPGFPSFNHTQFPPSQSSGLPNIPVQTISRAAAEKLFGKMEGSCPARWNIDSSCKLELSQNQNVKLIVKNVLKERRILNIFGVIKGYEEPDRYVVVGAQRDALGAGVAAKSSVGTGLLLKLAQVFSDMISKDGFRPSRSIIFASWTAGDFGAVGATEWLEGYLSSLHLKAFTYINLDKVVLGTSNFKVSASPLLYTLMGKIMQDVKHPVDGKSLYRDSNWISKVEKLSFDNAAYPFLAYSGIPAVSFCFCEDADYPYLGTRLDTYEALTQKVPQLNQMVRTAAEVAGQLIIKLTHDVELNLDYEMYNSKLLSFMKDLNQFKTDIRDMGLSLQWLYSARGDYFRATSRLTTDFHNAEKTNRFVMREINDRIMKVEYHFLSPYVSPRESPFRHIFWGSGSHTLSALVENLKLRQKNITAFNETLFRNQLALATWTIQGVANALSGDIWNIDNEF
Kind of assay: SPR, at equilibrium. In outline:
(§2)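 TfR–mouse Fc fusions, produced in-house, captured on HC 1500M or CM5 chips either directly or via immobilized anti-mouse IgG. VHHs injected in single-cycle or multiple-cycle kinetic mode on Biacore T200.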
In general terms: Surface plasmon resonance follows binding to a sensor surface in real time, without labels.

For assay [7], the target named is T2, mouse transferrin receptor (mTfR) fused …. Kind of assay: apparent Kd, flow cytometry, CHO cells. In outline: (§3)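 CHO cells expressing TfR-EGFP fusions, blocked in PBS/BSA 2%, then incubated with increasing VHH concentrations for 1 hr at 4° C. Bound VHH detected via anti-6His antibody and Alexa647 secondary, cells PFA-fixed, read by flow cytometry. Apparent Kd from nonlinear fit.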

Assay [8] deals with T1, human transferrin receptor (hTfR) fused …. The assay can be described thus: apparent Kd, flow cytometry, CHO cells. In outline:
as §3

Assay [9] has as its target T5, rhesus monkey transferrin receptor (rhTfR) fused to EGFP, on CHO cells (rhesus monkey).
T5 construct: whole, on cells; also called rhesus monkey TfR
Kind of assay: apparent Kd, flow cytometry, CHO cells. In outline: as §3

The target in assay [10] is T3, murine TfR expressed by murine …. The assay can be described thus: competition with the fluorescent reference VHH on Neuro-2a cells as in FIG. 25; Ki/app on mTfR, free VHH. The procedure:
as §1

Assay [11] has as its target T4, mouse TfR ectodomain fused to a mouse …. The assay can be described thus: SPR, kinetic. In outline:
as §2

For assay [12], the target named is T6, human TfR ectodomain fused to a mouse IgG1 Fc fragment (human, UniProt P02786 89-760).
T6 construct: extracellular domain; ectodomain fused to the N-terminal end of the Fc, made in-house; not shown: mouse IgG1 Fc fragment
T6 sequence (P02786 89-760): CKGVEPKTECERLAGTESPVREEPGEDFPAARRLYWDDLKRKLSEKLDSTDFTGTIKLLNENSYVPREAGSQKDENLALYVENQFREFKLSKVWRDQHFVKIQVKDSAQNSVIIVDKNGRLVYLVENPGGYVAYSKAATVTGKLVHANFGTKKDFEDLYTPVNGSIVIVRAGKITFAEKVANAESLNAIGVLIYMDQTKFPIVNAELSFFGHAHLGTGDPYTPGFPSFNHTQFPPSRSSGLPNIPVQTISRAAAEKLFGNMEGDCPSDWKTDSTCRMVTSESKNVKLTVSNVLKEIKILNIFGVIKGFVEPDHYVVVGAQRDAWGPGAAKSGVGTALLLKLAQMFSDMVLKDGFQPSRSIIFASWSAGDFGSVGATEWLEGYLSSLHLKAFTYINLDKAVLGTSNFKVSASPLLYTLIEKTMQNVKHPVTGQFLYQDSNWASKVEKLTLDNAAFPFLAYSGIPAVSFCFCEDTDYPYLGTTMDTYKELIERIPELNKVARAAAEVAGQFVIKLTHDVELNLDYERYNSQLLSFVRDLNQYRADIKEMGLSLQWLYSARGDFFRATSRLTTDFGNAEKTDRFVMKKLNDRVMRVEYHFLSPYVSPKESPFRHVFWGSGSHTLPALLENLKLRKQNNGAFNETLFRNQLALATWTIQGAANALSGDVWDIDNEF
The assay can be described thus: SPR, kinetic. In outline: as §2

Assay [13] has as its target T7, rhesus monkey TfR ectodomain fused to a mouse IgG1 Fc fragment (rhesus monkey, UniProt I0FKY7 89-760).
T7 construct: extracellular domain; not shown: mouse IgG1 Fc fragment
Kind of assay: SPR, kinetic. In outline: as §2

In assay [14] the target is T1, human transferrin receptor (hTfR) fused …. The assay can be described thus: apparent Kd, flow cytometry, CHO cells. The procedure: All experiments were performed in 96 well plates using 2×10⁵ cells/well, at 4° C. with shaking. CHO cell lines stably expressing the hTfR or the mTfR fused to EGFP or CHO WT cells were saturated with PBS/BSA 2% solution during 30 min to avoid non-specific binding, followed by incubation with purified VHHs at concentrations ranging from 50 μM to 5 μM for 1 hr. After one wash in PBS/BSA 2%, cells were incubated for 1 hr with an anti-6His tag antibody (mouse), washed twice with PBS/BSA 2%, and incubated for 45 min with an Alexa647-conjugated anti-mouse secondary antibody. After two last washes in PBS/BSA 2%, cells were fixed by incubation for 15 min with PBS/PFA 2%, washed once with PBS and finally resuspended in PBS and stored at 4° C. Fluorescence levels were assessed using an Attune NxT Flow Cytometer (Thermo Fisher Scientific). […] No labeling of the CHO WT control cells was detected with all the tested VHHs (not shown). The VHH K_{d app} were calculated using GraphPad Prism software (FIG. 11-B; 12-B).
This is another data set of the same source.

T1 sequence (P02786 whole entry, the tested form may be a part): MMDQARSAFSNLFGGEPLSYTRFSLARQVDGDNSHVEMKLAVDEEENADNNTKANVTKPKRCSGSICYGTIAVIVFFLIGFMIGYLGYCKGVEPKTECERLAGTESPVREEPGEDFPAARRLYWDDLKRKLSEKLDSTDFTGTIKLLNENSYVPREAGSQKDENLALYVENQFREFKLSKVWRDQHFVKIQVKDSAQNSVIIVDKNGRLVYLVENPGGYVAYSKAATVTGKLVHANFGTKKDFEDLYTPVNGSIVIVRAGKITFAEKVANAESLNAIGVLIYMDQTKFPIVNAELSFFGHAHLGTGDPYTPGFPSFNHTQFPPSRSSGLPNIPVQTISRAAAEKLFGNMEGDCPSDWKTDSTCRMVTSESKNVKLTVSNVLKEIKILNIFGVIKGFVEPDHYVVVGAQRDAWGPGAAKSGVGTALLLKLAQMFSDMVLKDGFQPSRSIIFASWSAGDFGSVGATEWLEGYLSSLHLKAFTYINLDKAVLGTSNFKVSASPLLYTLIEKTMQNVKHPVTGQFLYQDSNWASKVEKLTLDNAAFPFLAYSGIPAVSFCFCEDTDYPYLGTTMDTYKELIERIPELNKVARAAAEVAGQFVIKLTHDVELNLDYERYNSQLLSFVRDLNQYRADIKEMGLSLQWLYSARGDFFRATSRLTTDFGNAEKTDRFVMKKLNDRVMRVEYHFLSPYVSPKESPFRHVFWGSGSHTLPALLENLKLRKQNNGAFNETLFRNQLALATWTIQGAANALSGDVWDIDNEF
T3 sequence (Q62351 whole entry): as the sequence (Q62351 whole entry, the tested form may be a part) above

B1: C12b-NT(8-13) (VHH)
VHH: QVQLVQSGGGLVQPGGSLRLSCAASGFTFSAYAMSWVRQAPGKGRELVASISRTGDGTYYADGMKGRFTISRDNAENTVSLQINSLKPEDTAIYYCGAGINPTKYWGQGTQVTVSS
For B1, the Kd in [1] turned out to be 1860 nM.

B2: 13C3-HC-C5h9 (antibody)
heavy: QVQLQQSGPELVRPGVSVKISCKGSGYTFTDYAMHWVKQSHAKSLEWIGVISTKYGKTNYNQKFKGKATMTVDKSSSTAYMELARLTSEDSAIYYCARGDDGYSWGQGTSVTVSSAKTTPPSVYPLAPGSAAQTNSMVTLGCLVKGYFPEPVTVTWNSGSLSSGVHTFPAVLQSDLYTLSSSVTVPSSTWPSETVTCNVAHPASSTKVDKKIVPRDCGCKPCICTVPEVSSVFIFPPKPKDVLTITLTPKVTCVVVDISKDDPEVQFSWFVDDVEVHTAQTQPREEQFNSTFRSVSELPIMHQDWLNGKEFKCRVNSAAFPAPIEKTISKTKGRPKAPQVYTIPPPKEQMAKDKVSLTCMITDFFPEDITVEWQWNGQPAENYKNTQPIMDTDGSYFVYSKLNVQKSNWEAGNTFTCSVLHEGLHNHHTEKSLSHSPGGGGGMAEVQLVESGGGVVQPGGSLRLSCAASGTDFSINFIRWYRQAPGKGLEFVAGFTATGNTNYADSVKGRFTISRDNAKNTLYLQMNSLRPEDTAVYYCYMLDKWGQGTQVTVSSAAA
light: DVVMTQTPLSLPVSLGDQASISCRSGQSLVHSNGNTYLHWYLQKPGQSPKLLIYTVSNRFSGVPDRFSGSGSGSDFTLKISRVEAEDLGVYFCSQNTFVPWTFGGGTKLEIKRADAAPTVSIFPPSSEQLTSGGASVVCFLNNFYPKDINVKWKIDGSERQNGVLNSWTDQDSKDSTYSMSSTLTLTKDEYERHNSYTCEATHKTSTSPIVKSFNRNEC
On to B2, for which the Bmax in assay [2] was 531 RFI. The molecule further yielded a Kd in [3] of 15.8 nM.

B3: 13C3-HC-C5h20 (antibody)
heavy: B2 heavy with T521A, L522V
light: B2 light
notes: homodimeric fusion, bivalent for TfR
On to B3, for which, in assay [2], the Bmax worked out at 1470 RFI. In [3], the Kd was found to be 22.3 nM.

B4: 13C3-HC-C5h24 (antibody)
heavy: B2 heavy with V507M
light: B2 light
As for B4, the Bmax in [2] was 781 RFI. The Kd in [3] was 20.2 nM.

B5: VHH B (B8) (VHH)
VHH: EVQLVESGGGVVQPGGSLRLSCAASGEIFSINFMRWYRQAPGKQREWVAGFTRDGSTNYPDSAKGRFTISRDNAKNTVYLQIDSLKPEDTAVYYCYMLDTWGQGTQVTVSS
Broadly, the EC50 (read off the curve) is the concentration that produces a half-maximal response. Broadly, the koff is the rate constant with which the complex falls apart. By kon is commonly meant the rate constant with which the complex forms. Take B5: the concentration for a half-maximal effect (EC50 (read off the curve)) in assay [4] was ~4 nM. The Ki in assay [5] and in assay [10] was 56.2 nM throughout. Moreover, the Kd in assay [6] was 37.5 nM; in assay [7], 7.5 nM; in assay [8] it was 1.7 nM; in [9] it was 2.2 nM; in assay [11], 27 nM; in assay [12], 0.0559 nM. The Kd in assay [13] was found to be 0.0951 nM. The koff worked out at 0.0243 s⁻¹ in assay [11], 3.06e-05 s⁻¹ in [12] and 9.54e-05 s⁻¹ in assay [13]. For the same molecule, the on-rate constant (kon) is 1.23e+06 M⁻¹ s⁻¹ in assay [11], 677000 M⁻¹ s⁻¹ in [12] and 1e+06 M⁻¹ s⁻¹ in assay [13].

B6: VHH B-siGFPst1 bioconjugate (VHH)
VHH: B5 VHH
modifications: siGFPst1 siRNA linked to the Gln of the C-terminal Q-tag
notes: not shown: C-terminal tag with His tag and Q-tag
B6: in assay [4], the “EC50 (read off the curve)” value is ~3 nM.

B7: B8-MALAT1-ASO (VHH, not shown: small tags and cut ends)
VHH: B5 VHH
modifications: MALAT1 gapmer antisense oligonucleotide linked to the VHH
notes: also called VHH-MALAT1-ASO wherein VHH is B8
B7 yielded a Ki in assay [5] of 60.9 nM.

B8: VHH A12 (C5^V12) (VHH)
VHH: EVQLVESGGGVVQPGGSLKLSCVASGTDFSINFIRWYRQAPGKQREFVAGITATGNTNYADSMKGRFTISRDNTKNAVYLQIDSLKPEDTAVYYCYMLDKWGQGTQVTVSS
On to B8, for which the Kd in assay [14] is 363 nM.

B9: C5h18-NT(8-13) (VHH)
VHH: B8 VHH with Q44G, R45L, I51F, M63V, T74A, A77T, V78L, I82M, D83N, K86R
For B9, in assay [1], the Kd stood at 16.8 nM.
